Holding throughout (experiment): SPR
In general terms: SPR reads the build-up and loss of mass on a sensor chip optically.

In experiment [1] the target is CVB3/MKP3 (VP3-234Q) full particles (coxsackievirus B3, strain MKP).
Experiment [2] addresses CVB3/GS12-55/GS/CHN/2012 (VP3-234V) full particles (coxsackievirus B3, isolate GS12-55/GS/CHN/2012).
The target of experiment [3] is CVB3/XJ12-36/XJ/CHN/2012 (VP3-234N) full particles (coxsackievirus B3, isolate XJ12-36/XJ/CHN/2012).
For experiment [4], the target named is CVB3/HuN16-54/HuN/CHN/2016 (VP3-234D) full particles (coxsackievirus B3, isolate HuN16-54/HuN/CHN/2016).

“soluble extracellular domain of the human CD55 protein (from UniProt P08174 35-285) (receptor)”: the Kd in experiment [1] was found to be 0.465 µM; in experiment [2], 10 µM; in experiment [3] it was 7.8 µM; in experiment [4], 46 µM.

For the substance “soluble extracellular D1 and D2 domains of the human CAR protein (from UniProt P78310 20-236) (receptor)”, in experiment [1], the equilibrium dissociation constant (Kd) came out at 3.16 µM.

As a reminder, the Kd is the constant that tells how readily two partners part at equilibrium.

Source of the values: PMC8794823.
